Legend:
human Claudin18.2 [1] = molecular target: T1, human Claudin18.2 (Homo sapiens, UniProt P56856); test: Flow cytometry affinity to HEK293T-Claudin 18.2 cells; assay type: binding; parameters: expressed in transfected cells
Procedure: The affinity of 2C6.9-hz21 to human claudin 18.2 on cell membrane was detected using HEK293T-Claudin 18.2 cells, as follows. HEK293T-Claudin 18.2 cells were detached and centrifuged, followed by washing for twice with PBS. And then the cells were resuspended in PBS containing 1% BSA and were plated into 96-well tip bottom plate at 300000 cells per well in a volume of 50 μl for 20 wells in total. 2C6.9-hz21 or IMAB362 antibody was then added with 11 concentrations starting from 1000 nM with three-fold dilution. Human IgG was served as negative control. The reactions were mixed well and incubated for 1 h at 4° C. in the dark. Following by three times of washing with PBS, the FITC-labelled anti-human Fc secondary antibody (Biolegend, 409322) was added and incubated for 0.5h in the dark. Detection was performed by flow cytometry (Beckman, Cytoflex) after washing for three times with PBS.

[2] = tested on: HEK293T-Claudin 18.2 cells; test: NK cell mediated ADCC on HEK293T-Claudin 18.2 cells (LDH); assay type: cell-based; conditions: HEK293T-Claudin 18.2 target cells
Procedure: (§1) The steps were as follows: HEK293T-Claudin 18.2, L929-Claudin 18.2, KATOIII-Claudin 18.2 and NUGC-4 cells were harvested and centrifuged followed by adjustment of cell density. 1×10^4/well of cells were plated on a plate and incubated overnight. The medium was removed on the next day. NK92MI-CD16a cells (Huabo Biopharm) were centrifuged, resuspended in MEMA medium and adjusted to 1×10^6/mL, then 50 μL/well cells were added to the corresponding wells. […] For HEK293T-Claudin18.2, L929-Claudin18.2 and KATOIII-Claudin18.2 cells, ten antibody concentrations were tested, starting from 40 μg/mL with 5-fold dilution. For NUGC-4 cells, eleven antibody concentrations were tested, starting from 2 mg/mL with 5-fold dilution. 50 μL/well of the diluted antibodies were added to the corresponding wells and the reactions were left to stand in incubator at 37° C., 5% CO2 and incubated for 5.5h. Lysis buffer was then added to the positive control well and incubated for another 0.5h. 50 μL/well of Lactate Dehydrogenase (LDH) detection agent (DOJINDO LABORATORISE, CK12) were added to the wells and the absorbance at 490 nm were taken every 10 min on a plate reader (MD, SpectraMax M2). The results were imported into Graphpad Prism for curve fitting.
The cell used was HEK293T-Claudin 18.2. The ADCC activity of antibody 2C6.9-hz21 on HEK293T-Claudin 18.2 is stronger than that of IMAB362.

[3] = Pharmacokinetics in SCID mice; assay type: in vivo; conditions: 10 mg/kg intravenously
Procedure: Blood samples were taken 8 h, 1 d, 3 d, 8 d and 15 d after injection and serum antibody concentrations were determined by Cellular ELISA as described in Example 8. […] The data of mouse serum was subjected to curve fitting.

human Claudin18.2 [4] = molecular target: T1, human Claudin18.2; test: FACS positive rate of NUGC-4 cells; assay type: binding; parameters: cell lines endogenously expressing human Claudin18.2; host or cells: NUGC-4 human gastric cancer cell line; conditions: NUGC-4 cells endogenously expressing human Claudin18.2, FACS
Procedure: To determine binding affinity of the candidate antibodies to cell lines endogenously expressing human Claudin18.2, FACS analysis was performed to detect human Claudin18.2 expression level on NUGC-4 cells (purchased from Japan JCRB cell bank, catalog number: JCRB0834) which endogenously expresses human Claudin18.2. […] The binding affinity between candidate antibodies and NUGC-4 cells was then determined by Cellular ELISA following the same protocol as above.

human Claudin18.2 [5] = molecular target: T1, human Claudin18.2; test: Cellular ELISA on L929-Claudin 18.2 cells; assay type: binding; parameters: expressed in transfected cells; host or cells: L929, infected with pLVX-IRES-puro lentivirus, puromycin-selected monoclonal line; cells were formaldehyde-fixed for the cellular ELISA
Procedure: Human Claudin18.2 is a four transmembrane protein and has a complex structure. Cellular ELISA was thus carried out to maintain the structure of Claudin18.2. The stable cell line L929-Claudin 18.2 constructed in Example 1 were used for detection. Specifically, L929-Claudin 18.2 adherent cells were detached by 2 mM EDTA treatment. The cells were resuspended and adjusted to 2×10^5/mL and 100 μL of the resuspension was plated into 96 well plate and incubated overnight at 37° C. The next day, the media was removed, and the plate was washed with PBS once. 100 μL/well 4% formaldehyde was added to the plate. After 30 min of incubation at room temperature, formaldehyde was removed, followed by washing twice with PBS. Blocking buffer (PBS containing 2% BSA) was then added to the plate at 100 μL/well, and incubated at 37° C. for 2 h. After removal of blocking buffer, 100 μL/well of serially diluted antibodies (starting from 1 μM, with 4-fold dilution, for a total of 11 concentrations) were added to the corresponding wells, which were incubated at 37° C. for 2h afterwards. The plate was washed with 250 μL PBST for 5 times, and was allowed to stand for 2 min each time. 100 μL/well of horseradish peroxidase labeled anti-Human IgG secondary antibody (HRP-anti-Human IgG, Jackson ImmunoResearch, 109-035-003) diluted 1:10000 in PBS (containing 2% BSA) was added to the plate. The plate was incubated at 37° C. for 1 h and washed with 250 μL PB ST 6 times, wherein the plate was allowed to stand for 2 min each time. 100 μL/well of TMB solution (Thermo, 34029) was added. The reactions were incubated at 37° C. for 20 min and stopped with 50 μL 2 mol/L H2504. The absorbance at 450 nm was read on a plate reader (MD, SpectraMax M2) and the results were subjected to curve fitting by Graphpad Prism.

[6] = tested on: KATOIII-Claudin 18.2 cells; test: NK cell mediated ADCC on KATOIII-Claudin 18.2 cells (LDH); assay type: cell-based; conditions: KATOIII-Claudin 18.2 target cells, NK92MI-CD16a effector cells
Procedure: as §1

IMAB362: Zolbetuximab (IMAB362) developed by Astellas, human-mouse chimeric IgG1 antibody targeting Claudin 18.2; control antibody, sequences from CN 101312989 B [reference compound]
Max MFI (human Claudin18.2 [1]): 156715.7 | Max. Cytotoxicity ([2]; NK92MI-CD16a effector cells, Table 13): 55% | Max Cytotoxicity ([2]; Table 14 experiment): 20% | AUC [3]: 7391.22 µg·h/mL | NUGC-4 cells tested positive for Claudin 18.2 (human Claudin18.2 [4]): 20% | Max Signal Value (OD450) (human Claudin18.2 [5]; Table 8 experiment): 0.82 OD450 | Max Signal Value (OD450) (human Claudin18.2 [5]; Table 9 experiment): 0.53 OD450 | Max. Cytotoxicity [6]: 49%
